Experimental data as given in patent US20240277818A1, “COMPOSITION INCLUDING A METAL-ORGANIC FRAMEWORK (MOF) NANOPARTICLE FOR ORAL PROTEIN ADMINISTRATION” (UNIVERSITY OF NORTH TEXAS, priority 2023, published 2024).

Experiments:
[1] = in vivo; cited from earlier work
Caco-2 cell monolayers = assay: Lysosomal degradation of INS in cell monolayers, UiO-68-NH2 nanosystems; format: cell-based, human; conditions: 2 h incubation
[2] = In vivo fluorescence imaging and biodistribution of RITC-INS formulations (UiO-68-NH2); set-up: species or system mice; rats
Method: RITC-INS, RITC-INS@U, T@RITC-INS@U were orally administered to the overnight fasted mice for in vivo fluorescence imaging. The fluorescence images of mice were captured at different time points using the SI Imaging Amix imaging system to evaluate the metabolic process of INS preparations. Another group of mice was sacrificed after 4 h of treatment. The images of organs and intestines were also obtained. Different formulations were orally administered to the overnight fasted rats for 4 h. Then the rats were sacrificed, and the intestine loops were excised and frozen in Tissue-Tek OCT with liquid nitrogen. Cross intestine sections were obtained using a freezing microtome blade and then stained the intestine sections with DAPI for 10 min and visualized by CLSM.

blood glucose level = assay: In vivo pharmacodynamics, blood glucose after T@I@U, I@U and free INS; set-up: species or system alloxan-induced diabetic rats and mice
Method: In vivo INS bioactivity studies were performed in alloxan-induced diabetic animals (n=six per group). The rats and mice were induced to type I diabetes by alloxan injections. The animals were regarded as diabetic if their fasting blood glucose levels were higher than 11 mmol/L in one week after injection.

[3] = In vivo pharmacokinetics, serum INS (UiO-68-NH2 nanosystems)
Method: The rats and mice fasted overnight before experiments and then administered different samples by gavage. The […] effect was tested following the oral administration of I@U and T@I@U (20 IU/kg). As control groups, one group of rats were administered free INS (20 IU/kg) by oral gavage, and the other group was administered free INS (5 IU/kg) by s.c. injection. Blood samples were collected from the orbital venous plexus and analyzed using a blood glucose meter, expressed as the percentage of baseline serum glucose level (0 h) at different periods. The INS contents in blood samples were measured using the bovine INS ELISA kit. The 0 h INS content was subtracted from the INS measured at different time intervals and plotted.
Hypoglycemic effects (FIG. 7A, B) and insulin levels in the serum of SD rats (FIG. 7C) were tested after administration of equal amounts of insulin I @ U and T @ I @ U (20IU/kg) to diabetic mice (BALB/C mice) and rats (SD rats) by gavage. As a control group, one group of rats was administered insulin (20 IU/kg) by gavage, and the other group was administered insulin (5 IU/kg) by subcutaneous injection.

[4] = In vivo fluorescence imaging and biodistribution of PCN-777 formulations; set-up: species or system mice; rats; conditions: 12 h after administration
From the text: In vivo fluorescence imaging is undertaken. RITC-INS, RITC-INS@P, and R-I@F-P were orally administered to the overnight fasted diabetic mice or normal mice. The SI Imaging Amix imaging system was used to assess the distribution and metabolism of INS preparations in mice with different intestinal expressions of PCFT at different time points. Another group of diabetic mice or normal mice was sacrificed twelve hours after RITC-INS, RITC-INS@P, and R-I@F-P treatment, and the organs and intestines were collected and observed. The same procedure was done to diabetic rats. The intestine loops of the RITC-INS, RITC-INS@P, and R-I@F-P medicated rats were collected by the same procedure and frozen in Tissue-Tek OCT with liquid nitrogen. Intestinal sections were obtained using a cryostat and visualized by CLSM after staining with DAPI for 10 min.

blood glucose levels = assay: In vivo pharmacodynamics of PCN-777 nanosystems in rats; set-up: species or system SD rats; conditions: diabetic rats
Method: Animal models and diabetes induction were undertaken. Male Sprague Dawley rats (180-200 g) and BALB/c mice (18-20 g) were provided by Beijing Vital River Laboratory Animal Technology Co. Ltd. New Zealand rabbits (2-2.5 kg) were provided in all the animal studies were conducted following the Chinese Regulations for the Administration of Affairs Concerning Experimental Animals and performed in compliance with the guidelines of the Institutional Animal Care and Use Committee (IACUC) of Wuhan University. To establish an alloxan-induced diabetic rat model, healthy rats were intravenously injected with alloxan 50 mg/kg once and the blood glucose changes were monitored daily to confirm their diabetic status. After seven days, the blood glucose was stable at 20 mmol/L, proving the diabetes model was successfully established. The difference between the establishment of diabetes models of mice and rabbits was that the dosage of alloxan in mice and rabbits is 100 mg/kg. […] INS bioactivity in vivo was undertaken. In vivo studies were performed in alloxan-induced diabetic rats (n=five per group) and rabbits (n=three per group). […] At predetermined time intervals, blood samples were collected for glucose testing using a blood glucose meter. Serum insulin level was determined using a bovine INS ELISA kit. […]

trypsin = assay: Protection of INS from trypsin degradation by UiO-68-NH2 nanosystems; conditions: trypsin-containing HBSS buffer, 37 °C, 1 h
Method: To determine whether UiO-68-NH2 could protect INS from digestive enzymes, the NPs were incubated in simulated intestinal fluid containing trypsin (1 mg/mL) at 37° C. Aliquots (100 μL) at specific time intervals were taken out and added 200 μL of DMSO containing 0.1% trifluoroacetic acid to stop the enzymatic reaction. The concentration of INS was determined with the Elisa kit in all the following experiments.
Aliquots (100 μL) were removed at specified time intervals, 200 μL of DMSO containing 0.1% trifluoroacetic acid was added to stop the enzymatic reaction, and the concentration of insulin in the solution was determined using an Elisa kit.

[5] = system: Caco-2 cell monolayers with high or low expression of PCFT; assay: Transepithelial transport, TEER and INS degradation, PCN-777 nanosystems; conditions: 48 h of incubation
Method: The transepithelial transport studies were conducted following previously reported procedures. In short, the Caco-2 cells were cultured in transwell inserts for 21 days till the TEER values reached above 300Ω×cm^2. Caco-2 cell monolayers with high or low expression of PCFT were co-incubated with Free INS and I@P and I@F-P on the apical side for 48 hours. An amount of 100 μL of the sample was taken out from the basolateral side at different time intervals and 100 μL of DMEM was always supplemented to maintain a consistent volume. After 48 hours of incubation, samples of the apical and basolateral layers were collected respectively, and the cell monolayer was lysed with RIPA lysate and collected. The INS contents in each sample were then tested utilizing the bovine insulin ELISA kit. The degradation rate of INS in different preparations were calculated according to the following equation:
where m(total) is the total mass of INS added, m(apical) is the mass of INS in the apical layer, m(basolateral) is the mass of INS in the basolateral layer, and m(inside) is the mass of INS in the cell monolayer.

| Substance | duration of action [1] [h] | ingested INS degraded (Caco-2 cell monolayers) | INS fluorescence in major organs / liver ([2]; 4 h after oral administration) | INS fluorescence in sectioned intestine epithelial tissue ([2]; confocal imaging, 2 h after administration) | blood glucose response (blood glucose level; oral gavage, 20 IU/kg) | time after which hypoglycemic effect wears off (blood glucose level; subcutaneous 5 IU/kg) [h] | blood glucose level, % of the initial level (blood glucose level; subcutaneous 5 IU/kg, at 2 h) | relative (oral) bioavailability ([3]; oral 20 IU/kg versus s.c. free INS 5 IU/kg) [%] | time of maximum serum INS level ([3]; subcutaneous 5 IU/kg) [h] | time of return of serum INS to minimum ([3]; subcutaneous 5 IU/kg) [h] | fluorescence in intestine epithelial tissue sections [4] | glucose response (blood glucose levels; oral administration) | time to restoration of high blood glucose levels (blood glucose levels; subcutaneous injection) [h] | active INS remaining (trypsin) | degradation of ingested INS [5] |
| --- | --- | --- | --- | --- | --- | --- | --- | --- | --- | --- | --- | --- | --- | --- | --- |
| regular insulin: regular insulin (INS) as used by injection in diabetics | 4 to 8 | – | – | – | – | – | – | – | – | – | – | – | – | – | – |
| insulin [free INS] | – | about 50% | does not show any fluorescence signal | barely any fluorescence | fails to reduce the blood glucose level | 4 | about 28% | 0.7 | ≤ 1 | 4 | only weak fluorescence | fail to generate a significant glucose response | ≤ 4 | almost completely degraded | almost completely degrades |
